Consider one substance from publication PMC1783847.

The target of this experiment is Bluetongue virus serotype 10 outer capsid protein VP2, unmodified full-length (Bluetongue virus serotype 10 (BTV-10)). Briefly: SDS-PAGE of non-denatured samples with western blot. (In general: In western blotting, separated proteins are transferred to a membrane and probed.)

Take “Bluetongue virus serotype 10 outer capsid protein VP2, unmodified full-length (natural protein)”: the stoichiometry N worked out at 3.

By stoichiometry N is commonly meant a count of units in the complex or per binding partner.
